Assay results published in article PMC6698748.

Tests used:
[1] = molecular target: MtsR F187A (Streptococcus pyogenes (group A streptococcus), strain MGAS10870, serotype M3); assay: SEC
[2] = molecular target: MtsR (wild type, recombinant, untagged) (Streptococcus pyogenes (group A streptococcus), strain MGAS10870, serotype M3); assay: SEC

Substance | stoichiometry N [1] | stoichiometry N [2]
MtsR F187A (natural protein) | 2 | –
MtsR (wild type, recombinant, untagged) (natural protein) | – | 2
